According to paper PMC3718980 (The Journal of Cell Biology, 2013):

T1: GST-CERMAD of wild-type Moesin (residues 483–578) (Drosophila melanogaster, UniProt P46150 483-578)
T1 sequence (looked up): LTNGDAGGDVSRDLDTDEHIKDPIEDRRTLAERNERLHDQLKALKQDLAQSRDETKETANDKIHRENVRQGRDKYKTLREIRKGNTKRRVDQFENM


Assays:
[1] = target: microtubules (polymerized with GMPCPP, in taxol); test: co-sedimentation
[2] = target: T1, GST-CERMAD of wild-type Moesin …; test: pull-down
[3] = target: microtubules (polymerized with GMPCPP, in taxol); test: co-sedimentation; remark: listed apart in the source

Chain of Moesin1–559 (Drosophila Moesin with the C-terminal 19 amino acids deleted) (P46150 1-559, stated change not applied): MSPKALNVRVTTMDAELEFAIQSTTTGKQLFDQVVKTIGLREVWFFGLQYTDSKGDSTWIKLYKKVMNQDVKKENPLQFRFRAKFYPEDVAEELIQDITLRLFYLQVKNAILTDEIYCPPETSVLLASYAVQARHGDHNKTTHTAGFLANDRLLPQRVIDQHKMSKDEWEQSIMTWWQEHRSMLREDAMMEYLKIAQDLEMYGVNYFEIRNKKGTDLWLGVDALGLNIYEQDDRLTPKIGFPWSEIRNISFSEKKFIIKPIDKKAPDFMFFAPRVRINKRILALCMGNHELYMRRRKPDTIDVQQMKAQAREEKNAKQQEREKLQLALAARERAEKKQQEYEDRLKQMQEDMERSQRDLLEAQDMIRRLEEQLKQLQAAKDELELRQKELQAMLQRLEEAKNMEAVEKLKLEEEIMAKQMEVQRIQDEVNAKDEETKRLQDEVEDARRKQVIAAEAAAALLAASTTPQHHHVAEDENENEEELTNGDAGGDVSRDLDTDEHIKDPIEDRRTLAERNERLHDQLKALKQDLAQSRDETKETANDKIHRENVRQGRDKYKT

| Kd [1] [µM] | stoichiometry N [2] | fold reduction in the apparent Kd against FERM wild type [3] [fold] | Molecule |
| --- | --- | --- | --- |
| 1.9 |  |  | Moesin1–559 (Drosophila Moesin with the C-terminal 19 amino acids deleted) (from UniProt P46150 1-559) (domain or fragment) |
|  | 1 |  | FERM domain of Drosophila Moesin, wild type (domain or fragment, Drosophila melanogaster, UniProt P46150 1-296, looked up) MSPKALNVRVTTMDAELEFAIQSTTTGKQLFDQVVKTIGLREVWFFGLQYTDSKGDSTWIKLYKKVMNQDVKKENPLQFRFRAKFYPEDVAEELIQDITLRLFYLQVKNAILTDEIYCPPETSVLLASYAVQARHGDHNKTTHTAGFLANDRLLPQRVIDQHKMSKDEWEQSIMTWWQEHRSMLREDAMMEYLKIAQDLEMYGVNYFEIRNKKGTDLWLGVDALGLNIYEQDDRLTPKIGFPWSEIRNISFSEKKFIIKPIDKKAPDFMFFAPRVRINKRILALCMGNHELYMRRR |
|  | 1 | 3.6 | FERM-K212,213M of Drosophila Moesin (domain or fragment, Drosophila melanogaster, UniProt P46150 1-296, looked up) MSPKALNVRVTTMDAELEFAIQSTTTGKQLFDQVVKTIGLREVWFFGLQYTDSKGDSTWIKLYKKVMNQDVKKENPLQFRFRAKFYPEDVAEELIQDITLRLFYLQVKNAILTDEIYCPPETSVLLASYAVQARHGDHNKTTHTAGFLANDRLLPQRVIDQHKMSKDEWEQSIMTWWQEHRSMLREDAMMEYLKIAQDLEMYGVNYFEIRNMMGTDLWLGVDALGLNIYEQDDRLTPKIGFPWSEIRNISFSEKKFIIKPIDKKAPDFMFFAPRVRINKRILALCMGNHELYMRRR |
